Experiments:
[1] = molecular target: T1, cleaved active Rac1 (Rac^Q61L) (UniProt P63000 1-192, Q61L); assay: pull-down; purified proteins: GST-Armus 1-550 incubated with cleaved Rac Q61L with or without increasing amounts of MBP-LC3 (molar ratios shown in the figure); probed for Rac1 or LC3; settings: both partners purified
[2] = molecular target: T1, cleaved active Rac1 (Rac^Q61L); assay: pull-down; purified proteins: GST fusion protein (GST-LC3, or GST-Armus 1-550 wild-type or mutants) incubated with cleaved Rac Q61L; probed for Rac1; settings: both partners purified

B1: GST-Armus 1-550 wild-type (domain or fragment)
chain: MEGAGENAPESSSSAPGSEESARDPQVPPPEEESGDCARSLEAVPKKLCGYLSKFGGKGPIRGWKSRWFFYDERKCQLYYSRTAQDANPLDSIDLSSAVFDCKADAEEGIFEIKTPSRVITLKAATKQAMLYWLQQLQMKRWEFHNSPPAPPATPDAALAGNGPVLHLELGQEEAELEEFLCPVKTPPGLVGVAAALQPFPALQNISLKHLGTEIQNTMHNIRGNKQAQGTGHEPPGEDSPQSGEPQREEQPLASDASTPGREPEDSPKPAPKPSLTISFAQKAKRQNNTFPFFSEGITRNRTAQEKVAALEQQVLMLTKELKSQKELVKILHKALEAAQQEKRASSAYLAAAEDKDRLELVRHKVRQIAELGRRVEALEQERESLAHTASLREQQVQELQQHVQLLMDKNHAKQQVICKLSEKVTQDFTHPPDQSPLRPDAANRDFLSQQGKIEHLKDDMEAYRTQNCFLNSEIHQVTKIWRKVAEKEKALLTKCAYLQARNCQVESKYLAGLRRLQEALGDEASECSELLRQLVQEALQWEAGEASSD
notes: Armus (TBC1D2A, isoform 1; UniProt Q9BYX2-1), residues 1-550; also called GST-Armus_(1–550) wild-type (WT); source: 'purified proteins'
B1: binds [1].

B2: GST-Armus 1-550 W142A,Y510A (domain or fragment)
chain: MEGAGENAPESSSSAPGSEESARDPQVPPPEEESGDCARSLEAVPKKLCGYLSKFGGKGPIRGWKSRWFFYDERKCQLYYSRTAQDANPLDSIDLSSAVFDCKADAEEGIFEIKTPSRVITLKAATKQAMLYWLQQLQMKRAEFHNSPPAPPATPDAALAGNGPVLHLELGQEEAELEEFLCPVKTPPGLVGVAAALQPFPALQNISLKHLGTEIQNTMHNIRGNKQAQGTGHEPPGEDSPQSGEPQREEQPLASDASTPGREPEDSPKPAPKPSLTISFAQKAKRQNNTFPFFSEGITRNRTAQEKVAALEQQVLMLTKELKSQKELVKILHKALEAAQQEKRASSAYLAAAEDKDRLELVRHKVRQIAELGRRVEALEQERESLAHTASLREQQVQELQQHVQLLMDKNHAKQQVICKLSEKVTQDFTHPPDQSPLRPDAANRDFLSQQGKIEHLKDDMEAYRTQNCFLNSEIHQVTKIWRKVAEKEKALLTKCAYLQARNCQVESKALAGLRRLQEALGDEASECSELLRQLVQEALQWEAGEASSD
notes: Armus (TBC1D2A, isoform 1; UniProt Q9BYX2-1), residues 1-550, double point mutant; also called Armus^W142A,Y510A; source: 'purified proteins'
B2: binds [2].
